Results from paper PMC2893456, “Structural definition and substrate specificity of the S28 protease family: the crystal structure of human prolylcarboxypeptidase” (BMC Structural Biology, 2010).

Target: the molecule itself
Assay: crystal structure; 2.8 Å, MIRAS; space group R32, one molecule in the asymmetric unit, dimer formed across a two-fold crystallographic symmetry axis; crystals from 1.8 M ammonium sulfate, 0.1 M HEPES, pH 7.5, 1-2% PEG 400

B1: human prolylcarboxypeptidase (PRCP) (enzyme)
chain: KNYSVLYFQQKVDHFGFNTVKTFNQRYLVADKYWKKNGGSILFYTGNEGDIIWFCNNTGFMWDVAEELKAMLVFAEHRYYGESLPFGDNSFKDSRHLNFLTSEQALADFAELIKHLKRTIPGAENQPVIAIGGSYGGMLAAWFRMKYPHMVVGALAASAPIWQFEDLVPCGVFMKIVTTDFRKSGPHCSESIHRSWDAINRLSNTGSGLQWLTGALHLCSPLTSQDIQHLKDWISETWVNLAMVDYPYASNFLQPLPAWPIKVVCQYLKNPNVSDSLLLQNIFQALNVYYNYSGQVKCLNISETATSSLGTLGWSYQACTEVVMPFCTNGVDDMFEPHSWNLKELSDDCFQQWGVRPRPSWITTMYGGKNISSHTNIVFSNGELDPWSGGGVTKDITDTLVAVTISEGAHHLDLRTKNALDPMSVLLARSLEVRHMKNWIRDFYDS
modifications: N-linked glycans at Asn 101, 317, 336, 345 and 415 (Asn 47 not glycosylated); disulfide bridges 215-372, 233-310, 264-343, 364-394
notes: prolylcarboxypeptidase (PRCP), human
- binding result: binds
